Assay results reported in publication PMC10134273 (Cancer Medicine, 2023).
Values joined by “and” are separate entries in the source; they are usually repeats but may differ in a detail not shown here. Equal entries are not always repeated. Where two headings read alike, the source gives them in different places.

Protocol: Secondary endpoints included PK parameters (e.g., maximum observed concentration [C max] and area under the concentration‐time curve [AUC]). Secondary endpoints included objective response rate (ORR), disease control rate (DCR), and duration of response (DOR) as assessed by investigator per RECIST v1.1. Tumor responses were assessed according to RECIST v1.1; computerized tomography scanning or magnetic resonance imaging was performed every 6 weeks in the first 48 weeks, and every 12 weeks thereafter. Secondary endpoints also included safety and tolerability (adverse events [AEs] as defined by the National Cancer Institute‐Common Terminology Criteria for Adverse Events CTCAE v5.0) and exploratory biomarkers (total bile acids, 7‐α‐hydroxy‐4‐cholesten‐3‐one [C4] and circulating FGF19). Safety follow‐up visit was performed within 30 days (±5 days) and 90 days (±7 days) after the last dose of the study treatment.
All patients who received at least one dose of the study treatment in the Phase 1 part of the study were included in the safety and efficacy analyses. Dose escalation and MTD assessment were primarily based on DLTs which occurred within the 28‐day observation period. Descriptive statistics were used for demographics, safety, and efficacy data. The number of patients who experienced DLTs (within and outside of the 28‐day DLT assessment period) was tabulated for each dose level. The sample size of patients required for dose escalation were determined based on the ‘3+3’ design and DLTs observed as the trial progressed.

[1] = EVER4010001 40 mg BID group (N=3)
[2] = EVER4010001 60 mg BID group (N=3)
[3] = EVER4010001 80 mg BID group (N=6)
[4] = EVER4010001 100 mg BID group (N=7)

pembrolizumab: humanized monoclonal immunoglobulin G4 kappa anti-PD-1 antibody [reference compound]
14 (73.7) n (%): pembrolizumab related TEAEs: Investigations (Any Grade, N=19)
1 (16.7) n (%): TEAEs resulting in temporary interruption of pembrolizumab [3] | Temporary interruption of pembrolizumab: Blood bilirubin increased [3] | Temporary interruption of pembrolizumab: Investigations [3]
1 (33.3) n (%): TEAEs resulting in temporary interruption of pembrolizumab [1] | Temporary interruption of pembrolizumab: Endocrine disorders [1] | Temporary interruption of pembrolizumab: Thyroiditis [1]
18 (94.7%) n (%) and 18 (94.7) n (%): Any pembrolizumab related TEAEs (Any Grade, N=19)
11 (57.9) n (%): pembrolizumab related TEAEs: Gastrointestinal disorders (Any Grade, N=19)
6 (31.6) n (%): pembrolizumab related TEAEs: Metabolism and nutrition disorders (Any Grade, N=19)
1 (14.3) n (%): TEAEs resulting in temporary interruption of pembrolizumab [4] | Temporary interruption of pembrolizumab: Investigations [4]
1 (5.3%) n (%) and 1 (5.3) n (%): Temporary interruption of pembrolizumab: Blood bilirubin increased (Total (N=19)) | Temporary interruption of pembrolizumab: Thyroiditis (Total (N=19))
3 (15.8) n (%): pembrolizumab related TEAEs: Endocrine disorders (Any Grade, N=19) | pembrolizumab related TEAEs: Hyperphosphatemia (Any Grade, N=19) | pembrolizumab related TEAEs: Hypoalbuminemia (Any Grade, N=19) | pembrolizumab related TEAEs: Hypothyroidism (Any Grade, N=19)
none: SAEs related to EVER4010001 or pembrolizumab (2 patients with SAEs (40 and 60 mg))
2 (10.5) n (%): pembrolizumab related TEAEs: Abdominal pain (Any Grade, N=19) | pembrolizumab related TEAEs: Gamma-glutamyl transferase increased (Any Grade, N=19) | pembrolizumab related TEAEs: Thyroiditis (Any Grade, N=19) | pembrolizumab related TEAEs: Aspartate aminotransferase increase (Grade ≥3, N=19) | pembrolizumab related TEAEs: Investigations (Grade ≥3, N=19) | Temporary interruption of pembrolizumab: Investigations (Total (N=19))
3 [15.8%] n (%) and 3 (15.8) n (%): TEAEs resulting in temporary interruption of pembrolizumab (Total (N=19))
0 n (%): Temporary interruption of pembrolizumab: Blood bilirubin increased [1] | Temporary interruption of pembrolizumab: Investigations [1] | TEAEs resulting in temporary interruption of pembrolizumab [2] | Temporary interruption of pembrolizumab: Blood bilirubin increased [2] | Temporary interruption of pembrolizumab: Endocrine disorders [2] | Temporary interruption of pembrolizumab: Investigations [2] | Temporary interruption of pembrolizumab: Thyroiditis [2] | Temporary interruption of pembrolizumab: Endocrine disorders [3] | Temporary interruption of pembrolizumab: Thyroiditis [3] | Temporary interruption of pembrolizumab: Blood bilirubin increased [4] | Temporary interruption of pembrolizumab: Endocrine disorders [4] | Temporary interruption of pembrolizumab: Thyroiditis [4] | pembrolizumab related TEAEs: Abdominal pain (Grade ≥3, N=19) | pembrolizumab related TEAEs: Anemia (Grade ≥3, N=19) | pembrolizumab related TEAEs: Blood alkaline phosphatase increased (Grade ≥3, N=19) | pembrolizumab related TEAEs: Blood and lymphatic system disorders (Grade ≥3, N=19) | pembrolizumab related TEAEs: Blood bilirubin increased (Grade ≥3, N=19) | pembrolizumab related TEAEs: Endocrine disorders (Grade ≥3, N=19) | pembrolizumab related TEAEs: Gamma-glutamyl transferase increased (Grade ≥3, N=19) | pembrolizumab related TEAEs: Hyperphosphatemia (Grade ≥3, N=19) | pembrolizumab related TEAEs: Hypoalbuminemia (Grade ≥3, N=19) | pembrolizumab related TEAEs: Hypothyroidism (Grade ≥3, N=19) | pembrolizumab related TEAEs: Metabolism and nutrition disorders (Grade ≥3, N=19) | pembrolizumab related TEAEs: Proteinuria (Grade ≥3, N=19) | pembrolizumab related TEAEs: Renal and urinary disorder (Grade ≥3, N=19) | pembrolizumab related TEAEs: Thyroiditis (Grade ≥3, N=19)
11 [57.9%] n (%) and 11 (57.9) n (%): pembrolizumab related TEAEs: Diarrhea (Any Grade, N=19)
10 [52.6%] n (%) and 10 (52.6) n (%): pembrolizumab related TEAEs: Aspartate aminotransferase increase (Any Grade, N=19)
4 (21.1) n (%): pembrolizumab related TEAEs: Anemia (Any Grade, N=19) | pembrolizumab related TEAEs: Blood alkaline phosphatase increased (Any Grade, N=19) | pembrolizumab related TEAEs: Blood and lymphatic system disorders (Any Grade, N=19) | pembrolizumab related TEAEs: Blood bilirubin increased (Any Grade, N=19) | pembrolizumab related TEAEs: Proteinuria (Any Grade, N=19) | pembrolizumab related TEAEs: Renal and urinary disorder (Any Grade, N=19)
1 (5.3) n (%): pembrolizumab related TEAEs: Diarrhea (Grade ≥3, N=19) | pembrolizumab related TEAEs: Gastrointestinal disorders (Grade ≥3, N=19) | Temporary interruption of pembrolizumab: Endocrine disorders (Total (N=19))
